± gives the half width of the 95% confidence interval.
Tests used:
[1] = folding stability dG unfold from trypsin proteolysis; higher = more stable
Summary of the method: (§1)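 Bayesian fitting of sequencing counts gave K50 for each design. Unfolding free energy followed by setting this against a sequence-predicted unfolded-state K50 and a shared folded-state K50, either per protease or with trypsin and chymotrypsin combined. The designs, under 80 residues and lacking cysteine, were digested in a PA-tagged cDNA display format at 11 threefold-diluted protease concentrations and without protease, and only those with AlphaFold2 dimer inter-PAE above 15 were kept.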

[2] = folding stability dG unfold from chymotrypsin proteolysis; higher = more stable
Summary of the method: as §1

[3] = folding stability dG unfold (combined trypsin and chymotrypsin); higher = more stable
Summary of the method: as §1

Sequence | folding stability dG unfold [1] | folding stability dG unfold [2] | folding stability dG unfold [3]
SAGSSAVEVDIDEELKEKLKKLIDPDKPIEITRLKTTTNETIILITEKGSGKKYIFTRNKEGKIEIKKSAGG [r19_70_JUSTAS] | 2.07 ± 0.061 kcal/mol | 2.5 ± 0.065 kcal/mol | 2.38 ± 0.069 kcal/mol
SAGGSAGGSAMKVRVKIKITRGSKEYEEEFILPEEEIEKLKEEIPEDYEVEIVDKEPLVLKSAGGSAGGSAG [r3_195_JUSTAS] | 0.129 ± 0.16 kcal/mol | 0.771 ± 0.16 kcal/mol | 0.46 ± 0.27 kcal/mol
SAGGSAGGLPEGDIYRIRVTLPNGNTFTITFPVKSVEQAKDFAKSFLESLGLPDVKVDIEPVPVSAGGSAGG [r6_844_TrROS] | 3.53 ± 0.065 kcal/mol | 4.2 ± 0.044 kcal/mol | 4 ± 0.074 kcal/mol
SMYDIVITVPSPEDVKALEEAFKELGVEEIEVERLPEERYRIVIKTKGSVEEIVEAIRKIAEENGLEIEPSA [r9_1003_TrMRF] | 3.36 ± 0.18 kcal/mol | 3.89 ± 0.19 kcal/mol | 3.75 ± 0.19 kcal/mol
SAGGKSVKVSLPKEALKKAKENEKVVITLPDGTKREAILVRGGDSVPVFVVNPDNPEEAEYVGEATVGSAGG [r13_745_TrMRF] | -0.503 ± 0.16 kcal/mol | 0.134 ± 0.042 kcal/mol | -0.0228 ± 0.09 kcal/mol
SAGKPGKTIKVTVPIPDSVKNAKIIVEYPNGKSKTITVPAGKNVTITFKVPGSSSVKVRVVLDDGSVIGSAG [r5_664_TrMRF] | 2.9 ± 0.075 kcal/mol | 2.45 ± 0.046 kcal/mol | 2.69 ± 0.054 kcal/mol
SAGGSAGGSATIRIPWDKIKDALEEHDMTVTNIEPNPGGNPWVEIEVNGTPEQREKIQEALKSAGGSAGGSA [r18_175_TrROS] | 0.369 ± 0.045 kcal/mol | 0.255 ± 0.15 kcal/mol | 0.313 ± 0.12 kcal/mol
SAGGSAGGSAMTVRFGKPEELEKAEELAEEIAKAHPGKPIKVTVTKDPNNPDEYTVTITEESAGGSAGGSAG [r3_131_JUSTAS] | -0.24 ± 0.16 kcal/mol | 0.544 ± 0.09 kcal/mol | 0.289 ± 0.14 kcal/mol
SAGGKKKKPKKKIKIKIVKVEKKYDKKTGKLKEVRIEIEIEAESEEEAKKLAEELAKKLNIEVEVKKKSAGG [r13_606_TrROS_Hall] | 1.28 ± 0.11 kcal/mol | 2.44 ± 0.096 kcal/mol | 2.01 ± 0.32 kcal/mol
SAGGSAGGSAGGVEIPPDKPVAIEVTSPEGPTATLIFDPKDGTVTVIEGGKPVEVPAEDFSAGGSAGGSAGG [r7_937_TrMRF] | 0.0909 ± 0.059 kcal/mol | -1.06 ± 0.53 kcal/mol | -0.377 ± 0.29 kcal/mol
SAGGSAGGSADEIPIMIKIKYKNGGKKREHTITFRVEPNMPNLDEFAKELANNGRIEEVEISAGGSAGGSAG [r3_30_TrROS] | 0.629 ± 0.14 kcal/mol | -0.282 ± 0.59 kcal/mol | 0.28 ± 0.25 kcal/mol
SAGGSASPAVSSEEEVEALVEELRKKGYEVLSVERTEIPGEDVTDYTIPIRDPSNGKLSTLTLTAGSAGGSA [r15_123_JUSTAS] | 0.508 ± 0.037 kcal/mol | 0.538 ± 0.15 kcal/mol | 0.585 ± 0.12 kcal/mol
SAGGPKVYLTDIVTTLPDGTVVMIGEIELPDGTPLIAITTIYKDGTVKVFIYDPNGKLIAEIEIKPKPSAGG [r13_903_TrMRF] | 2.15 ± 0.085 kcal/mol | 3.09 ± 0.032 kcal/mol | 2.78 ± 0.064 kcal/mol
SAGGSAGPSVTVDVTFHPGEGTVDVTVTTEGEVVYGKGTFLNPSTVLVEVYFPGSGKVATLTLPVTSAGGSA [r15_837_TrMRF] | 1.87 ± 0.066 kcal/mol | 1.61 ± 0.07 kcal/mol | 1.73 ± 0.052 kcal/mol
SAGGSAGGSAGMKVAVLTIPENGKPVLVVELPDGGALAFDPDTDAVFLLDDDKIYYLGPASAGGSAGGSAGG [r17_476_TrMRF] | 0.0117 ± 0.033 kcal/mol | 1.52 ± 0.059 kcal/mol | 1.13 ± 0.075 kcal/mol
SAGMVLKITVKDKKTKEEREIVIEIPEDDPELKKLGIKSPEELAKKLAEELKKEGIEVEEVKVEAYPLPSAG [r5_722_TrROS_Hall] | 1.23 ± 0.096 kcal/mol | 2.04 ± 0.084 kcal/mol | 1.78 ± 0.25 kcal/mol
SAGGSAGGSAGAGKVVFEVDIKTFLGKRKDGSDAPKTIIEIKVFDIAPLDPNDPVLKALISAGGSAGGSAGG [r11_236_TrMRF] | 2.28 ± 0.11 kcal/mol | 3.54 ± 0.15 kcal/mol | 3.26 ± 0.22 kcal/mol
SAGDWYIVIKITIYHPNKREREFPIVFDWKDGKIEIAPEFLQNIAEELGLPPNMKIEIEIVEIMPPNDSAGG [r19_287_TrROS] | 1.75 ± 0.12 kcal/mol | 3.22 ± 0.099 kcal/mol | 2.43 ± 0.55 kcal/mol
SAGMKITYKRPDGTPAEPIPEEEIKKLAEEKAKELYPNKPDATVTVTITIKTNNNEPLIITMTVTIKNESAG [r5_526_JUSTAS] | 0.982 ± 0.054 kcal/mol | 1.13 ± 0.18 kcal/mol | 1 ± 0.38 kcal/mol
SAGGSKTVTLTVTVEVNGKTFTVTVTLTYDEETNKLTITVEISAKSEEERERARELVEKLLKELLSSAGGSA [r2_259_TrROS_Hall] | 3.83 ± 0.12 kcal/mol | 4.95 ± 0.094 kcal/mol | 4.79 ± 0.13 kcal/mol
SAGGSEVKIVKIESVEIEEENGFLRIKVRATLKFYDKETGELVEEKEVELEVTLKNGKKLTFKIKASAGGSA [r2_271_TrROS_Hall] | 3 ± 0.23 kcal/mol | 3.12 ± 0.086 kcal/mol | 3.12 ± 0.58 kcal/mol

Reference: the supplement of paper PMC12764529
